Reference: US20100221240A1, “Chemically Modified Peptide Analogs” (FRAUNHOFER-GESELLSCHAFT ZUR FORDERUNG DER ANGEWANDTEN …, priority 2004, published 2010)

Legend:
[1] = Sedimentation test (solubility; BCA protein determination of pellet and supernatant); type: physicochemical; conditions: pH 7.4
Description: a) The sedimentation test was used to investigate the solubility of the analogs compared to IAPP. The quantity of precipitated or soluble peptide was determined as a function of time. In one typical experiment, first a peptide solution at a given concentration (1, 10, or 100 μM) in 10 mM sodium phosphate buffer, pH 7.4 was prepared. Aliquots of this solution were centrifuged at specified times (20200 g, 20 min), and precipitated protein in the pellet and supernatant was quantified using the bicinchonic acid (BCA) protein determination assay. FIG. 1 illustrates several results from this test. […] After 20 h IAPP was completely precipitated; in contrast, the N-methylated IAPP-LA [sic; IAPP-AL], IAPP-GI, and IAPP-AF [sic; IAPP-FA] analogs remained soluble over 14 days, even at a concentration of 100 μM. IAPP completely precipitated after only 2 h under the latter-referenced conditions (100 μM).

[2] = ThT binding assay of the fibrile formation potential of the peptides alone; type: physicochemical; conditions: 2% HFIP, 10 mM tris, pH 7.4
Description: b) Amyloid fibriles from various protein species bind to the dye ThT and result in an increase in the maximum fluorescence emission of the […]. The ThT binding is therefore a specific test widely used for quantifying amyloid fibriles. This test was used to determine the amyloid formation potential of the analogs compared to IAPP. For this test the analogs and IAPP were incubated at a concentration of 62.5 μm [sic; μM] (2% HFIP, 10 mM tris, pH 7.4). […] aliquots from these incubations were combined with […] of a 5 μM ThT solution (in 0.1 M glycine-NaOH buffer, pH 8.5), mixed, and after excitation at 450 nm the emission from the solution was determined at 485 nm. It was shown that IAPP forms fibriles at a concentration of 625 nM.

[3] = EM analysis of peptide solutions for fibriles; type: physicochemical; conditions: 5 μM, 10 mM sodium phosphate buffer pH 7.4, 1% HFIP, approximately 20 h at RT
Description: c) For EM analyses, 5-μM solutions of the analogs versus IAPP (in 10 mM sodium phosphate buffer, pH 7.4, containing 1% HFIP) were incubated for approximately 20 h at RT. 10 μL of the solutions was then applied to EM plates, and after dyeing with 1% uranyl acetate as described in Kayed, J. Mol. Biol. (1999) 287, 781-796 was analyzed for the presence of fibriles by means of EM.

IAPP = biological target: T1, IAPP (Homo sapiens, UniProt P10997); assay: EM-tracked aggregation test of IAPP in 1:1 mixture with analogs; type: biochemical; conditions: IAPP 5 μM alone or 1:1 with analog, 10 mM sodium phosphate pH 7.4, 1% HFIP, 20 h
T1 construct: Natural human IAPP
T1 sequence (P10997 34-70 limits assumed): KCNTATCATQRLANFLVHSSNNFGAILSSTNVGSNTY
Description: In one typical aggregation test tracked by EM, IAPP (5 μM) was incubated alone or in the presence of one of the analogs, in a 1:1 ratio (in 10 mM sodium phosphate buffer, pH 7.4, containing 1% HFIP). After 20 h, 10 μL of the solution was applied to an EM plate, and after dyeing with 1% uranyl acetate as described in Kayed, J. Mol. Biol. (1999) 287, 781-796 was analyzed for the presence of fibriles by means of EM.

[4] = biological target: T2, IAPP receptor on MCF-7 cells (Homo sapiens, UniProt P30988); assay: Stability in solution: preservation of AC activation potential (hormonal activity) on storage; type: cell-based; conditions: 250 μM or 1 mg/mL, sodium phosphate pH 7.4, RT, 4 days; 1 μM end concentration on cells
T2 construct: Specific IAPP receptors are expressed in the MCF-7 cell line; endogenous in cells; host or cells: MCF-7 (human breast cancer cells)
T2 sequence (P30988 25-474): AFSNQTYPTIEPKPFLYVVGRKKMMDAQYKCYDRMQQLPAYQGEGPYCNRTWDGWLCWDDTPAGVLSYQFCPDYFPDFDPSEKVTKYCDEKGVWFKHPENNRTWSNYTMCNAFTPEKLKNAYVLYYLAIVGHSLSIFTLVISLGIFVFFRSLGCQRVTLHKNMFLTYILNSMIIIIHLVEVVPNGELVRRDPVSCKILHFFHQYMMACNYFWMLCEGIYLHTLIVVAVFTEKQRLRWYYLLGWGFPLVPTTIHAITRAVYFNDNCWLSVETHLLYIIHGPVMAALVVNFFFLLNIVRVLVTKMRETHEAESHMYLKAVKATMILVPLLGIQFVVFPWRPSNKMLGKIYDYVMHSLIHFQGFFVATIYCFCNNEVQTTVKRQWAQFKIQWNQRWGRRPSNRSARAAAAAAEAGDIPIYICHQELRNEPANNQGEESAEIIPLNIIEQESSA
Description: To [determine] the potential applicability of the analogs as an IAPP or pramlintide replacement in the treatment of diabetes and/or other diseases, the stability of the solutions of the analogs and thus their hormonal activity in comparison to readily aggregating IAPP was investigated. In one typical assay, aqueous solutions of IAPP, IAPP-AL, IAPP-GI, or 1:1 mixtures of the analogs with IAPP (250 μM or 1 mg/mL) in […] sodium phosphate, pH 7.4, were used at RT and incubated for 4 days. The AC activation potential of these solutions was determined at various times, e.g., at times 0, 48 h, and 96 h, by means of the AC activation assay described above (end concentration in the cells was 1 μM, corresponding to maximum activation) (FIG. 9).

[5] = Nyholm B. et al. 2001; cited from earlier work
[6] = 10 μM in 10 mM sodium phosphate buffer

**Q.** With “Natural human IAPP (KCNTATCATQRLANFLVHSSNNFGAILSSTNVGSNTY; listed as Homo sapiens) [peptide hormone of 37 amino acids]” as the compound, how does the onset of aggregation [1, 6] read?
**A.** began immediately after the solution was prepared

**Q.** And the “time after which peptide was completely precipitated” value [1, 6]?
**A.** 20 h

**Q.** What about the “time after which peptide was completely precipitated” value ([1]; 100 μM in 10 mM sodium phosphate buffer) of the same compound?
**A.** 2 h

**Q.** And the “concentration at which fibriles form” value [2]?
**A.** 625 nM

**Q.** What about the “presence of fibriles by EM” value [3] of the same compound?
**A.** composed primarily of IAPP amyloid fibriles

**Q.** And the “fibrile formation by EM” value (IAPP)?
**A.** composed primarily of IAPP amyloid fibriles

**Q.** What about the “hormonal activity (AC activation potential) after storage in solution” value [4] of the same compound?
**A.** may lose more than half of its original hormonal activity

**Q.** Which “pH values at which the peptide tends to aggregate” value [5] does the source give for CC[C@H](C)[C@H](NC(=O)[C@@H]1CCCN1C(=O)CNC(=O)[C@H](Cc1ccccc1)NC(=O)[C@H](CC(N)=O)NC(=O)[C@H](CC(N)=O)NC(=O)[C@H](CO)NC(=O)[C@H](CO)NC(=O)[C@H](Cc1c[nH]cn1)NC(=O)[C@@H](NC(=O)[C@H](CC(C)C)NC(=O)[C@H](Cc1ccccc1)NC(=O)[C@H](CC(N)=O)NC(=O)[C@H](C)NC(=O)[C@H](CC(C)C)NC(=O)[C@H](CCCNC(=N)N)NC(=O)[C@H](CCC(N)=O)NC(=O)[C@@H](NC(=O)[C@H](C)NC(=O)[C@@H]1CSSC[C@H](NC(=O)[C@@H](N)CCCCN)C(=O)N[C@@H](CC(N)=O)C(=O)N[C@@H]([C@@H](C)O)C(=O)N[C@@H](C)C(=O)N[C@@H]([C@@H](C)O)C(=O)N1)[C@@H](C)O)C(C)C)C(=O)N[C@@H](CC(C)C)C(=O)N1CCC[C@H]1C(=O)N1CCC[C@H]1C(=O)N[C@H](C(=O)N[C@@H](CC(N)=O)C(=O)N[C@H](C(=O)NCC(=O)N[C@@H](CO)C(=O)N[C@@H](CC(N)=O)C(=O)N[C@H](C(=O)N[C@@H](Cc1ccc(O)cc1)C(N)=O)[C@@H](C)O)C(C)C)[C@@H](C)O [pramlintide] here?
**A.** above 5
